Measurements taken from the RNAGym collection of RNA variant scans (doi:10.1073/pnas.2313332121).
Fewer inactive variants are shown than the library holds.

B1: TPR 5TU (parent)
chain: GGAUCUUCUCGAUCUAACAAAAAAGACAAAUCUGCCACAAAGCUUGAGAGCAUCUUCGGAUGCAGAGGCGGCAGCCUUCGGUGGCGCGAUAGCGCCAACGUUCUCAACUAUGACACGCAAAACGCGUGCUCCGUUGAAUGGAGUUUAUCAUG

Variants of: B1
Assay: polymerase ribozyme fitness, log enrichment relative to wild type (log ratio); higher = more active; in vitro selection for triplet polymerase activity
Summary of the method: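 A single round of triplicate in vitro selection, including frozen incubation at −7 °C, was applied to PCR-built, transcribed mutant libraries of each subunit of a heterodimeric triplet polymerase ribozyme. Illumina sequencing of input and output libraries retained genotypes with ≥10 input reads and ≥1 read per output. Fitness is the base-2 logarithm of genotype enrichment divided by wild-type enrichment, from inverse-variance-weighted replicate averages.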

Variant | polymerase ribozyme fitness (log ratio)
U55A G59A U61C U135C A142G | -3.84
U102G A121G | -2.33
G50C A73C C95G C105G | ≤ -4.2
U53A C96U C114G | -4.15
C14U C93U | -2.62
U4A C57G G83A | -1.23
C10A A39C C54U C76U C87A | ≤ -4.2
G59C C76A U78C C87A G94C C96U G100A U144A | ≤ -4.2
C87U U102G | -3.08
C79G C87U U144G | -4.04
U55A G128C U146A | -4.09
C27G U61A C93U C95U A97U G133U | ≤ -4.2
A21C C43A U45G G48C A73G G86U C96G A97C G140U | ≤ -4.2
A22G G59C C75G C108G A138G | ≤ -4.2
C27U G70C A138G | ≤ -4.2
C35U C95U C96A | -1.64
A17U G126A | 0.557
U102G U111G | ≤ -4.2
C69A U77G C118U U139C | ≤ -4.2
G94C C103U A119C C125A | -2
A16G G92U C93U C118U | -2.94

Variant | polymerase ribozyme fitness (log ratio)
C18G C27G U53G A120C | ≤ -4.2
C38U U90C U109C C116A C125G U146G | ≤ -4.2
A37U C75G C87G C93U U101C | ≤ -4.2
G94A G136A | -0.0776
A19G G48A G62U A73G C96A A119G | ≤ -4.2
C69U U102C | -2.59
A3U C85U | -0.254
C14G U33C C87A A91C | ≤ -4.2
C57U C87A | -4.12
A24U C85A | -1.22
C36U G65C U102G G140C C149G | ≤ -4.2
C69A U78G U90G G128A C131U | ≤ -4.2
C51A U55A C95A A110U G128C | ≤ -4.2
C14U A66U U78C | ≤ -4.2
G42A C76U G81U G83C A110U C114G | ≤ -4.2
A3G U6C A64U G70C G86A U90G C93U G133C C149U | ≤ -4.2
C51U A60G C79G C85G C129A | ≤ -4.2
U45G U61A | -2.35
A41G C93A A147C | -1.52
A19U A30U U90G A91C C118G | ≤ -4.2
G67C G94A C95G A150G | ≤ -4.2

Variant | polymerase ribozyme fitness (log ratio)
U55A A98U U135A | -1.42
C14G C85A | -3.74
A22C A39U U139A | ≤ -4.2
A40C G92U U135G | -2.96
C10U A40C G42C A49G G58U G83C G92A A107C G141C C149G | ≤ -4.2
U4C U15C C87A A121C | ≤ -4.2
A23G C96U | -2.56
G42C C43U A60G C87A C108G A121G A142C | ≤ -4.2
U9G C32A A40G A52G | ≤ -4.2
A41G U56A G58C C87A C108G G143C | ≤ -4.2
A41U C96U A122C | -1.02
A40U U44A C57U C76G A91U U134C G136C | ≤ -4.2
G70C A98U | -2.78
G59C U82G G143C | -2.29
C8G A91U A142U | -3.92
C5G C10G U13G C14G C54A C57U G88U G94A U139C U144C | ≤ -4.2
G92U C105G C125U A137G | -3.35
C10U G143U | -3.61
G58C G124C | -0.411
A24U C114G | -3.34
C5A A52U G83A | -3.03

Variant | polymerase ribozyme fitness (log ratio)
U56A C75U | -0.839
C57A C96U U146G | -0.855
C85U A119U A138C U145A | -3.86
A28G U55A G58C A122G | ≤ -4.2
A73G G92C C96A | -2.51
C10A U31G G50A G58C C96A C116U | ≤ -4.2
U4A G11U G50A C76U G84U G94C G126U | ≤ -4.2
A17U C18U G94C A115U | -3.41
A12C C87U | -0.61
G58C U77G C87G G152A | ≤ -4.2
C5A A26U G50A C51U A106C U139G | ≤ -4.2
C10G G42A C57U C85A C108U | ≤ -4.2
C93A A122U | -2.45
G80U G94A C96A U101A C149A | ≤ -4.2
C5U U13G A22U U55A G65U G70U C87A C95U A98G A137C G141A G143C | ≤ -4.2
A20U C69A | -2.18
C14U C32U U61C A91U | ≤ -4.2
A41U A49U | -2.28
A47G | 0.239
C57A G83A | -0.934
